test: yeast display, Sf9 membrane polyspecificity reagent, FACS + sequencing; frameworks hold sequencing errors
Method in brief: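 After 36–48 hours of galactose induction, yeast (Saccharomyces cerevisiae BJ5465) displaying a synthetic nanobody library were stained at 4 °C for 1 hour with 10% biotinylated, detergent-solubilized Sf9 membrane reagent. Streptavidin microbeads enriched the stained cells before FACS sorting into low and high (top ~1%) gates on anti-HA and streptavidin fluorescence. Each clone's polyreactivity label reflects its gate of origin.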

Sequence | polyreactivity (PSR sort gate)
QVQLQESGGGLEQAGGSLRLSCAASGYISDIGPMGWSRQAPGKEREFVATIVVGSTTNYADSVKGRFTISRDNAKNTVYLQPESGRFRGVLLRGWLLAVGKFTYWGQGTQETVSS | low polyreactivity
QVQLQESGGGLEQAGGSLRLSCAASGYISDIGTMGWYRQAPAKEREFVATIVVGSTTNYADSVKGRFTISRDNAKNTVYLQPESGRYRGVLLSGWLLAVGKFTYWGQGTQETVSS | low polyreactivity
QVQLQESGGGLLLAGGSLRLSCSASGNISVYGSMGWYRQAPGKEREFVATIDPGTNTNYADSVKDRFTISRDNAKNTVYLQMNSLKPEDTAVYYCAVEAGSDWPYRYWGQGTQVTVSS | low polyreactivity
QVQLQESGGGLMQAGGNLRLSCAASGYISTNDDMDWYRQAPGKERELVARIDDGAITNYADSVKGRFTISRDNAKKTVYLQMNSLKPEDTAVYYFAVYSGDDYYHDYWGQGTQVTVSS | low polyreactivity
QVQLQESGGGLMQAGGSQRLSCAASGSISYYSDMGWYRQSPGKEREFVAGIGYGTTTNYADSVKGRFTTSRDNAKNTVYLQMISMKPEDTAVYYCAAYQGNGYEFYYWGQGTQVTVRS | low polyreactivity
QVQLQESGGGLMQAGGSQRLSCAASGSITYYSDMGCYRQAPGKELEFVAAIGYGTTTNYADSVKGRFTTSRDNAKYTVYLQMISMKPEDTAVYYCAAYQGKGYEFYYWGQGTQVTVRS | low polyreactivity
QVQLQESGGGLVKAGGSLRLSCAASGSIFYWPWMGWYRQAPGREREFVATITTGSNTYYADSMKGHLTISRDNARNTVYLQMNSLKPEDTAVYYCAVVGDGELEHRYWGQGTQVTVSS | high polyreactivity
QVQLQESGGGLVLAGGSLRLSCSASGNISVYGSMGWYRQAPGKEREFVATIDPGTNTNYADSVKDRFTISRDNAKNTVYLQMNSLKPEDTAVYYCAVEAGSDWLYRYWGQGTKVTVSS | low polyreactivity
QVQLQESGGGLVNAGGSLRLSCAASGTISFINMMGWYRQAPGRERELVASINFGANTNYADSVKGRFTISRDNAKNTVYLQMNSLKPEDTAVYYCAVYDFDAYTLYYWGQGTLVTVSS | high polyreactivity
QVQLQESGGGLVQACGSQRLSCAASGSISEGQDMGWYRRAPGKEREFVAGIAPGATTYYADSVKGRFTISRDNAKNTVYLQMNSLKPEDTAVYYCAARSVTETDHDYWGQVTQVTVSS | low polyreactivity
QVQLQESGGGLVQADGSLRLSCAASGSIFGYYYMGWYRQAPGKDRDLVATINICGITNYADSVNGRFTISRDNAKYTVYLQMNSLKPDDTAVYYCAADEFDQRDLGYWGQGTQVSVSS | low polyreactivity
QVQLQESGGGLVQAGGCLSCTASGTIFGQGDMGWYRQAPGKERELVATINVGASTYYADSVKGRFTISRDKAKNTVYLQKNSLKPDDTAVYYCAVFTDITTYFGYWGQGTQVTVSS | low polyreactivity
QVQLQESGGGLVQAGGDLRLSCAASGNIFRDYIMGWNPQAPGKEREFVAGIDRGANTNYADSVKGRFTISRDNAKNTVYLQMNSLKPEDTAVYYCAVHTAIVPDFIYWGQGTQVTVSS | low polyreactivity
QVQLQESGGGLVQAGGILRRSCAACGNIFPSAVMGWYRQALGKEREFVATINSGSNTYYADSVKGRFTISRDNAKNTVYLQMNSLKLEDTAVYYCAAYFKLPAWHTYWGQGTQVTVSS | low polyreactivity
QVQLQESGGGLVQAGGSLCLSCAASGTIFFDGDMGWNRQAPGKEREFVAAINPGGSAYYADSVKGRLPLAAITHTVYMQMYSLKPEDTAVYYCEAILFDVYGYYYWGQGTNVTVSS | low polyreactivity
QVQLQESGGGLVQAGGSLLICAASGTISWVDEMGWYRQAPGNERELVAGIAGGGNTNYADSVKGRYTISRDNAKNTVYLEMNSLDTAVYYCAVVGFGRGTHIYWGQGTQVTVSS | high polyreactivity

Sequence | polyreactivity (PSR sort gate)
QVQLQESGGGLVQAGGSLLLSCAASGSSYDDTYMGWYRQAPGKERELVATIDSGSTTNYADSVKGRNTISRDNAKYTLYLQMNSLKPEDTAVYYCAAADSHIDYFDYWGQGTQVTVSS | low polyreactivity
QVQLQESGGGLVQAGGSLLSCAASGTISSYREMGWYRQAPGKELELVAGIGVGTITYYADSVKGRFTISRDNAKNTVYLQMNSLKPEDTAVYYCAAHIDGNDSHAYWGQGTQVTVSS | low polyreactivity
QVQLQESGGGLVQAGGSLLSCAASGTISWVDEMGWYRQAPGNERELVAGIAGGGNTNYADSVKGRYTISRDNAKNTVYLQMNSLDTAVYYCAVVGFGRGTHIYWGQGTQVTVSS | high polyreactivity
QVQLQESGGGLVQAGGSLRLGCAASGNISDAGYMGWYRQAPGKEREFVAAIAAGSNTNYADSVKGRFTISRDNAKNTVYLQMNSLKPEDTAVFYCAVGSYARVQYEYWGQGTQVTVNS | low polyreactivity
QVQLQESGGGLVQAGGSLRLRCAASGYISAGRQMGWYRQGPGKEREFVATINGGATTNYADSVKGRFTISRDNAKNSVYLQMNSLKPEDTAVYYCAVRTYIYDIHRYWGQGTQVTVSS | high polyreactivity
QVQLQESGGGLVQAGGSLRLSCAASCTISQEDWMGSYRQAPGKEREFVAAIGLGSNTNYADSLKGRFTISRDNAKNTVYLQMNSLKPEDTAVYYCAVSVWQYSDHVYRGQGTQVTVSS | low polyreactivity
QVQLQESGGGLVQAGGSLRLSCAASCTISQEDWMGWYRQAPGKEREFVAAIGLGSNTNYAESLKGRFTISRDNAKKTVYLQLHSLKPEDTAVYYCAVSVWQYSDHVYGGQGTQVTVSS | low polyreactivity
QVQLQESGGGLVQAGGSLRLSCAASGNIFDADIMGWYRQAPGKERELVASITDGGSTNYADSVKGRFTISRDNAKNTLYLQLISLYPDDTGVYYCAAIAYPDIPTYFDYDSDYFYWGQGTQVTVSS | high polyreactivity
QVQLQESGGGLVQAGGSLRLSCAASGNIFPTVSMGWYRQAPGKEREFVVTIDPGSNTYYADSAKGRFTISRDNAKNTVYLQMNSPKPEDTAVYYCAVVFADWATYGYWGQGTQVTVSS | high polyreactivity
QVQLQESGGGLVQAGGSLRLSCAASGNISSYYRMGSYRQAPGKEREFVATIAVGGTTNYADSVKGRFTISRDNAKNTVYLQMNSLKPEDTAVCFCAANSTQYTWFDYWGQGTQVPVSS | low polyreactivity
QVQLQESGGGLVQAGGSLRLSCAASGNISVTGFMGWYRQAPGKERELVASIGIGGTTYYADSVKGRFSISRDNAKNTVYLQMNSLKPEDTAVYYCAARVIYYYGSGPYDYWGQGTQVTVSS | low polyreactivity
QVQLQESGGGLVQAGGSLRLSCAASGNIVDADIMGWYRQAPGKEREIVASITDGGSTNYADSLKGRFTISRDHAKNTVYQQMNRLLPEDTAVYYCAAIAYPDIPTYFDYDSDYFYWGQGTQETVSS | high polyreactivity
QVQLQESGGGLVQAGGSLRLSCAASGNIYDADIMGWYRQAPGKERELVTSITDGGSTNYADSVKGRFTISRDNAKNTVYLQMNSLKPEDTAVYYCAAIAYPDIPTSFDYNTDYSYWGQGTQVTVSS | low polyreactivity
QVQLQESGGGLVQAGGSLRLSCAASGSIFKVVDMGLYRQAPAKEREFVATIGEGGNTYYADSVKGRFTISRDNAKNTVYLQMNSLKPEDTAVYYCNVDIGVYAYESDYWGQGTQVTVSS | low polyreactivity
QVQLQESGGGLVQAGGSLRLSCAASGSIFQLHIMCWYRQAPGKERESVAAISYGTSTYYADSVKGRFTICRDNAKNTVYLQMNSPKTDDTAVYYCAALFLVSKHHHYWGEGTQVTVSS | low polyreactivity
QVQLQESGGGLVQAGGSLRLSCAASGSIFYEFYMGWYRQAPGKERELVAAIANGASTYYADSVKGRFTISRDNSKNTVYLQMSSLKPEDTAVYYCAVNTTSDIDYIYWGQGTQVNVSS | low polyreactivity

— the nanobody polyreactivity screen of Harvey et al. (2022)
